T1: death domain-deleted human DR3 (hDR3ΔDD) on CHO-K1 cells (human, UniProt Q93038 25-345)
T1 construct: also called CHO/DR3; human DR3-expressing CHO cells
T1 sequence: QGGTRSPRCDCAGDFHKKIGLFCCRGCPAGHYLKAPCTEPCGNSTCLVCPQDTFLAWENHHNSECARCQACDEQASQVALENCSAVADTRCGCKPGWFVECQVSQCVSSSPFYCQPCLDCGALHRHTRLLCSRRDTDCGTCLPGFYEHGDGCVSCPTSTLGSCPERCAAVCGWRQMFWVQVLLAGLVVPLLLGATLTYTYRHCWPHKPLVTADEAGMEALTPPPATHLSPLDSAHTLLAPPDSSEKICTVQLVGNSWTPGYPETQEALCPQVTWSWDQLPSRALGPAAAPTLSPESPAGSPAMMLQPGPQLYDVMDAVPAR


Key:
[1] = molecular target: T2, recombinant human DR3-human IgG1-Fc (soluble human DR3(EC)-hG1Fc) (human); assay: SPR, Fab on immobilised DR3-Fc, same as Example 5; n = 6
T2 construct: also called huDR3-huFc; hDR3(EC)-hG1Fc
Description: (§1) Fab antibody fragments of the above mentioned antibodies were obtained following the Pierce Fab Preparation Kit (Thermo Scientific Pierce No. 44985). All of the following manipulations were carried out using a Biacore® 3000 (manufactured by GE Healthcare Bio-Sciences). Recombinant huDR3-huFc protein was immobilized on a CM5 sensor chip (manufactured by GE Healthcare Bio-Sciences) by an amine coupling chemistry.
(§2) In particular, the kinetic assay was carried out by immobilizing on the chip approximately 2000 resonance unit (RU) of recombinant protein, in order to achieve a medium protein immobilization level. Thereafter, the anti-DR3 antibody Fab fragments, diluted from 12 nM concentration in five steps, were allowed to run at a flow rate of 30 μL/min onto the chip for 120 seconds. The dissociation time was 300 seconds and the binding curves were measured at 25° C.
(§3) Regeneration was performed with glycine-HCl, pH 1.5, 60 seconds. The raw data were double referenced by subtraction of the signals from a reference flow cell without captured ligand and a buffer blank. The sensorgram corresponding to each concentration was obtained. The analysis was carried out using a 1:1 Langmuir fit model, using the analysis software attached to the apparatus, Biacore® 3000 Evaluation software (manufactured by Biacore), thereby calculating an association rate constant ka [1/Ms] and a dissociation rate constant kd [1/s] for the recombinant huDR3-huFc protein.

[2] = molecular target: T2, recombinant human DR3-human IgG1-Fc …; assay: SPR (Biacore 3000), huDR3-huFc on CM5, Fab as analyte; average KD, n = 2
Description: as §1, §2
(§4) Regeneration was performed with glycine-HCl, pH 1.5, 60 seconds. The raw data were double referenced by subtraction of the signals from a reference flow cell without captured ligand and a buffer blank. The sensorgram corresponding to each concentration was obtained. […]

[3] = molecular target: T2, recombinant human DR3-human IgG1-Fc …; assay: SPR (Biacore 3000), huDR3-huFc amine-coupled on CM5, Fab 12 to 0.375 nM, 1:1 Langmuir fit, 25 C; run 1
Description: as §1, §2, §3

[4] = molecular target: T2, recombinant human DR3-human IgG1-Fc …; assay: SPR (Biacore 3000), huDR3-huFc amine-coupled on CM5, Fab 12 to 0.375 nM, 1:1 Langmuir fit, 25 C; run 2
Description: as §1, §2, §3

[5] = molecular target: T2, recombinant human DR3-human IgG1-Fc …; assay: SPR, Fab on immobilised DR3-Fc
Description: as §1, §2, §3
Target sequence in this assay (chain, as listed by the source limits assumed): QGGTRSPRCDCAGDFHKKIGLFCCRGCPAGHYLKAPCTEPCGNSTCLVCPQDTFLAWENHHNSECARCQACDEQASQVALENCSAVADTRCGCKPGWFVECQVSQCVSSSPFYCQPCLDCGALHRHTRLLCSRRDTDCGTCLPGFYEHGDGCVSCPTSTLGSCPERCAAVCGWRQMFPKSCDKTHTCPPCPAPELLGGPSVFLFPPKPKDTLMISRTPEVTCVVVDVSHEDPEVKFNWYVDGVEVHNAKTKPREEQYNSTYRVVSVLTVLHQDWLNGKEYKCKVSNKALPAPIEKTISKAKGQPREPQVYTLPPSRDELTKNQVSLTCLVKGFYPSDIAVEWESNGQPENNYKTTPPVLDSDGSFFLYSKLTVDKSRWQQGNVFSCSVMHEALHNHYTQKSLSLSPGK

[6] = molecular target: T2, recombinant human DR3-human IgG1-Fc …; assay: SPR, Fab on immobilised DR3-Fc, same as Example 5; n = 3
Description: as §1, §2, §3

[7] = molecular target: T2, recombinant human DR3-human IgG1-Fc …; assay: SPR, Fab on immobilised DR3-Fc, same as Example 5; n = 23
Description: as §1, §2, §4

[8] = molecular target: T1, death domain-deleted human DR3 …; assay: flow cytometry of hybridoma supernatant on human DR3-expressing CHO cells, anti-human IgG-PE
Description: Supernatants of multiwell plates were screened by flow cytometric binding to human DR3-expressing CHO cells (hereinafter described as CHO/DR3, in case). Cells were incubated at 10,000/well in a 96-well round-bottom assay plate for 15 minutes at 4° C. with a neat supernatant of hybridoma. Cells were pelleted via centrifugation, and washed with 200 μL PBS/0.5% fetal calf serum. […] Cells were washed as described above, and resuspended in 200 μL PBS/0.5% fetal calf serum; >5000 events acquired on an LSR Fortessa flow cytometer (Beckton Dickinson). Results were analyzed using FlowJo (Treestar Inc.).

| Binder | Kd [1] [nM] | fold increase of binding affinity against parental 142A2 [5] [fold] | Kd [6] [nM] | also measured |
| --- | --- | --- | --- | --- |
| anti-DR3 monoclonal antibody 142A2 Fab fragment (Fab, V domains shown, Fab made with the Pierce Fab Preparation Kit from antibody 142A2; also called parental 142A2) VH: QVQLQQSGPGLVKPSQTLSLTCAISGDSVSGYSAAWNWIRQSPSRGLEWLGRTYYRSKWYNDYAVSVKSRITINPDTSKNQFSLQLNSVTPEDTAVYYCARDYYGSESYYNGGYYYYGMDVWGQGTTVTVSS VL: AIQLTQSPSSLSASVGDRVTITCRASPGISSALAWYQQKPGKAPKLLMYDASSLESGVPSRFSGSGSGTDFTLTISSLQPEDFATYYCQQFNDYPLTFGGGTKVEIK | 3.99 |  |  | Kd [2]: 2.65 nM; Kd [3]: 3.79 nM; Kd [4]: 1.5 nM |
| 142A2-A51E Fab (Fab, V domains shown, Only the variable domains are written; also called A2-E) VH: QVQLQQSGPGLVKPSQTLSLTCAISGDSVSGYSAAWNWIRQSPSRGLEWLGRTYYRSKWYNDYAVSVKSRITINPDTSKNQFSLQLNSVTPEDTAVYYCARDYYGSESYYNGGYYYYGMDVWGQGTTVTVSS VL: AIQLTQSPSSLSASVGDRVTITCRASPGISSALAWYQQKPGKAPKLLMYDESSLESGVPSRFSGSGSGTDFTLTISSLQPEDFATYYCQQFNDYPLTFGGGTKVEIK | 2.2 | ~1.8 |  |  |
| 142A2-G112R/L54Q Fab (Fab, V domains shown, Only the variable domains are written) VH: QVQLQQSGPGLVKPSQTLSLTCAISGDSVSGYSAAWNWIRQSPSRGLEWLGRTYYRSKWYNDYAVSVKSRITINPDTSKNQFSLQLNSVTPEDTAVYYCARDYYGSESYYNRGYYYYGMDVWGQGTTVTVSS VL: AIQLTQSPSSLSASVGDRVTITCRASPGISSALAWYQQKPGKAPKLLMYDASSQESGVPSRFSGSGSGTDFTLTISSLQPEDFATYYCQQFNDYPLTFGGGTKVEIK |  |  | 2.37 |  |
| 142A2-G112R Fab (Fab, V domains shown, Only the variable domains are written) VH: QVQLQQSGPGLVKPSQTLSLTCAISGDSVSGYSAAWNWIRQSPSRGLEWLGRTYYRSKWYNDYAVSVKSRITINPDTSKNQFSLQLNSVTPEDTAVYYCARDYYGSESYYNRGYYYYGMDVWGQGTTVTVSS VL: AIQLTQSPSSLSASVGDRVTITCRASPGISSALAWYQQKPGKAPKLLMYDASSLESGVPSRFSGSGSGTDFTLTISSLQPEDFATYYCQQFNDYPLTFGGGTKVEIK |  |  | 3.19 |  |
| 142A2-G112R/A51E Fab (Fab, V domains shown, Only the variable domains are written; also called A2-ER) VH: QVQLQQSGPGLVKPSQTLSLTCAISGDSVSGYSAAWNWIRQSPSRGLEWLGRTYYRSKWYNDYAVSVKSRITINPDTSKNQFSLQLNSVTPEDTAVYYCARDYYGSESYYNRGYYYYGMDVWGQGTTVTVSS VL: AIQLTQSPSSLSASVGDRVTITCRASPGISSALAWYQQKPGKAPKLLMYDESSLESGVPSRFSGSGSGTDFTLTISSLQPEDFATYYCQQFNDYPLTFGGGTKVEIK | 1.96 | ~2 |  |  |
| 142A2-L54Q Fab (Fab, V domains shown, Only the variable domains are written; also called A2-Q) VH: QVQLQQSGPGLVKPSQTLSLTCAISGDSVSGYSAAWNWIRQSPSRGLEWLGRTYYRSKWYNDYAVSVKSRITINPDTSKNQFSLQLNSVTPEDTAVYYCARDYYGSESYYNGGYYYYGMDVWGQGTTVTVSS VL: AIQLTQSPSSLSASVGDRVTITCRASPGISSALAWYQQKPGKAPKLLMYDASSQESGVPSRFSGSGSGTDFTLTISSLQPEDFATYYCQQFNDYPLTFGGGTKVEIK |  | ~1.2 | 3.04 |  |
| 142A2-G112R/A51E/L54Q Fab (Fab, V domains shown, Only the variable domains are written; also called A2-EQR; 142A2-EQR) VH: QVQLQQSGPGLVKPSQTLSLTCAISGDSVSGYSAAWNWIRQSPSRGLEWLGRTYYRSKWYNDYAVSVKSRITINPDTSKNQFSLQLNSVTPEDTAVYYCARDYYGSESYYNRGYYYYGMDVWGQGTTVTVSS VL: AIQLTQSPSSLSASVGDRVTITCRASPGISSALAWYQQKPGKAPKLLMYDESSQESGVPSRFSGSGSGTDFTLTISSLQPEDFATYYCQQFNDYPLTFGGGTKVEIK |  | ~2.2 | 1.78 |  |
| 142A2-A51E/L54Q Fab (Fab, V domains shown, Only the variable domains are written; also called A2-EQ) VH: QVQLQQSGPGLVKPSQTLSLTCAISGDSVSGYSAAWNWIRQSPSRGLEWLGRTYYRSKWYNDYAVSVKSRITINPDTSKNQFSLQLNSVTPEDTAVYYCARDYYGSESYYNGGYYYYGMDVWGQGTTVTVSS VL: AIQLTQSPSSLSASVGDRVTITCRASPGISSALAWYQQKPGKAPKLLMYDESSQESGVPSRFSGSGSGTDFTLTISSLQPEDFATYYCQQFNDYPLTFGGGTKVEIK |  | ~1.9 |  | Kd [7]: 2.13 nM |
| anti-DR3 monoclonal antibody 142S38B Fab fragment (Fab, V domains shown, Fab made with the Pierce Fab Preparation Kit from antibody 142S38B; Human kappa light chain; Only the variable domains are written) VH: EVQLLESGGGLVQPGGSLRLSCAASGFTVSRYAMSWVRQAPGKGLEWVSAISDSGGRTYYADSVMGRFTISRDTSKNTLYLQMNSLRAEDTAVYFCAKEFGDYLDYWGQGTLVTVSS VL: EIVLTQSPATLSLSPGERATLSCRASQSVSSYLAWYQQKPGQAPRLLIYDASNRATGIPARFSGSGSGTDFTLTISSLEPEDFAVYYCQQRSNWWTFGQGTKVEIK |  |  | 0.13 | Kd [2]: 0.194 nM; Kd [3]: 0.225 nM; koff [3]: 5.37e-05 s⁻¹; kon [3]: 239000 M⁻¹ s⁻¹; Kd [4]: 0.162 nM; koff [4]: 5.46e-05 s⁻¹; kon [4]: 337000 M⁻¹ s⁻¹ |
| anti-DR3 monoclonal antibody 142S38B (hybridoma supernatant) (antibody, V domains shown, Human antibody from a KM mouse hybridoma, detected with anti-human IgG-PE; Kappa light chain) VH: EVQLLESGGGLVQPGGSLRLSCAASGFTVSRYAMSWVRQAPGKGLEWVSAISDSGGRTYYADSVMGRFTISRDTSKNTLYLQMNSLRAEDTAVYFCAKEFGDYLDYWGQGTLVTVSS VL: EIVLTQSPATLSLSPGERATLSCRASQSVSSYLAWYQQKPGQAPRLLIYDASNRATGIPARFSGSGSGTDFTLTISSLEPEDFAVYYCQQRSNWWTFGQGTKVEIK |  |  |  | binding result [8]: binds |

Source: patent US20170190781A1 (Kyowa Kirin, published 2017)
